Four substances from patent publication US20170334954A1 can be followed below.

For experiment [1], the target named is human polyclonal IgG (Gammanorm) (human). In words: column 10% breakthrough capacity, ligand on agarose beads, ligand content […], 6 min residence time; before NaOH.
Experiment [2] has the same target. Description: column 10% breakthrough capacity, ligand on agarose beads, ligand content […]; after six 4 h cycles in 1.0 M NaOH.
For experiment [3] the target is unchanged. In words: column 10% breakthrough capacity, ligand on agarose beads, ligand content 7.2 mg/ml, 6 min residence time; before NaOH.
The target is the same in experiment [4]. Description: column 10% breakthrough capacity, ligand content 7.2 mg/ml; 0.5 M NaOH; ratio to reference Zvar4.
Experiment [5] shares this target. In words: column 10% breakthrough capacity, ligand content […]; 0.5 M NaOH; ratio to reference Zvar4.
Experiment [6] has the same target. Description: column 10% breakthrough capacity, ligand on agarose beads, ligand content 7.2 mg/ml; after 24 h in 0.5 M NaOH.
For experiment [7] the target is unchanged. Description: column 10% breakthrough capacity, ligand content […]; 1.0 M NaOH; ratio to reference Zvar4.
For experiment [8] the target is unchanged. In words: column 10% breakthrough capacity, ligand on agarose beads, ligand content […]; after 24 h in 0.5 M NaOH.
For experiment [9] the target is unchanged. In words: column 10% breakthrough capacity, ligand on agarose beads, ligand content […], 6 min residence time; before NaOH. This is another data set of the same source.
Experiment [10] shares this target. Description: column 10% breakthrough capacity, ligand on agarose beads, ligand content 9.7 mg/ml, 6 min residence time; before NaOH.
The target is the same in experiment [11]. In words: column 10% breakthrough capacity, ligand content 9.7 mg/ml; 1.0 M NaOH; ratio to reference Zvar4.
The target is the same in experiment [12]. In words: column 10% breakthrough capacity, ligand on agarose beads, ligand content 9.7 mg/ml; after 24 h in 0.5 M NaOH.
For experiment [13] the target is unchanged. Description: column 10% breakthrough capacity, ligand content 9.7 mg/ml; 0.5 M NaOH; ratio to reference Zvar4.
Experiment [14] has the same target. In words: column 10% breakthrough capacity, ligand on agarose beads, ligand content 9.7 mg/ml; after six 4 h cycles in 1.0 M NaOH.
Experiment [15] has the same target. Description: column 10% breakthrough capacity, ligand on agarose beads, ligand content 9.7 mg/ml, 6 min residence time; before NaOH. This is another data set of the same source.
Experiment [16] has the same target. Description: column 10% breakthrough capacity, ligand on agarose beads, ligand content 10.8 mg/ml, 6 min residence time; before NaOH.
The target is the same in experiment [17]. Description: column 10% breakthrough capacity, ligand content 10.8 mg/ml; 0.5 M NaOH; ratio to reference Zvar4.
Experiment [18] shares this target. Description: column 10% breakthrough capacity, ligand on agarose beads, ligand content 10.8 mg/ml; after 24 h in 0.5 M NaOH.
Experiment [19] shares this target. In words: column 10% breakthrough capacity, ligand content 7.0 mg/ml; 0.5 M NaOH; ratio to reference Zvar4.
The target is the same in experiment [20]. In words: column 10% breakthrough capacity, ligand on agarose beads, ligand content 7.0 mg/ml; after 24 h in 0.5 M NaOH.
The target is the same in experiment [21]. Description: column 10% breakthrough capacity, ligand on agarose beads, ligand content 7.0 mg/ml, 6 min residence time; before NaOH.

For “Zvar(Q9A, N11E, Q40V, A42K, N43A, L44I)4 with an additional N-terminal cysteine (agarose bead ligand) (designed binder)”, the results for the Initial IgG capacity Qb10 in [1], in experiment [3] and in [9] were 56.3 mg/mL, 49 mg/mL and 60.3 mg/mL, respectively. The Remaining IgG capacity Qb10 after six 4 h cycles in experiment [2] amounted to 56 mg/mL; in [6], 44.2 mg/mL; in experiment [8], 53.6 mg/mL. In addition, the values for the Remaining IgG capacity after six 4 h cycles (%) in experiment [2], in [6] and in [8] were 93%, 90% and 95%, respectively. The Capacity retention relative to ref. after six 4 h cycles in [4] was found to be 1.5; in experiment [5] it was 1.34; in [7], 1.67.

Regarding “Zvar(N11K, H18K, S33K, D37E, A42R, N43A, L44I, K50R, L51Y)4 with an additional N-terminal cysteine (agarose bead ligand) (designed binder)”, the results for the Initial IgG capacity Qb10 in experiment [10] and in [15] were 56.3 mg/mL and 62.1 mg/mL, respectively. In addition, the Capacity retention relative to ref. after six 4 h cycles was 1.44 in [11] and 1.53 in [13]. The Remaining IgG capacity Qb10 after six 4 h cycles is 52 mg/mL in experiment [12] and 48.1 mg/mL in experiment [14]. For the same substance, the Remaining IgG capacity after six 4 h cycles (%) was determined as 92% in [12] and 77% in experiment [14].

On to “Zvar(Q9A, N11K, H18K, D37E, A42R)4 with an additional N-terminal cysteine (agarose bead ligand) (designed binder)”, for which the Initial IgG capacity Qb10 in experiment [16] is 56.9 mg/mL. For the same substance, the Capacity retention relative to ref. after six 4 h cycles in [17] was found to be 1.3. For the same substance, in experiment [18], the Remaining IgG capacity Qb10 after six 4 h cycles stood at 52.5 mg/mL and the Remaining IgG capacity after six 4 h cycles (%) amounted to 92%.

Take “Zvar(Q9A, N11E, N28A, N43A)4 with an additional N-terminal cysteine (agarose bead ligand) (designed binder)”: the Capacity retention relative to ref. after six 4 h cycles is 1.5 in experiment [19] and 1.31 in experiment [5]. The Initial IgG capacity Qb10 in experiment [1] amounted to 50 mg/mL; in [21] it was 49.1 mg/mL. The Remaining IgG capacity Qb10 after six 4 h cycles turned out to be 44.1 mg/mL in [20] and 46.2 mg/mL in experiment [8]. Besides, the Remaining IgG capacity after six 4 h cycles (%) was 90% in [20] and 93% in [8].
